In PMC10138348 (2023):

What was measured:
[1] = biological target: T1, F4, TNFα-derived peptide with a myristoylated lysine and fluorescein-labelled cysteine in the +2 position (UniProt P01375, myristoyl residue on the lysine side chain; 5-acetamidofluorescein coupled to a cysteine residue at position +2); test: FP; 3 uM BSA, no NAD+
[2] = biological target: T1, F4, TNFα-derived peptide with a …; test: FP; 0.3 uM BSA, no NAD+
[3] = biological target: T1, F4, TNFα-derived peptide with a …; test: FP; 0 uM BSA, no NAD+

B1: SIRT2 (enzyme)
chain: MAEPDPSHPLETQAGKVQEAQDSDSDSEGGAAGGEADMDFLRNLFSQTLSLGSQKERLLDELTLEGVARYMQSERCRRVICLVGAGISTSAGIPDFRSPSTGLYDNLEKYHLPYPEAIFEISYFKKHPEPFFALAKELYPGQFKPTICHYFMRLLKDKGLLLRCYTQNIDTLERIAGLEQEDLVEAHGTFYTSHCVSASCRHEYPLSWMKEKIFSEVTPKCEDCQSLVKPDIVFFGESLPARFFSCMQSDFLKVDLLLVMGTSLQVQPFASLISKAPLSTPRLLINKEKAGQSDPFLGMIMGLGGGMDFDSKKAYRDVAWLGECDQGCLALAELLGWKKELEDLVRREHASIDAQSGAGVPNPSTSASPKKSPPPAKDEARTTEREKPQ
Kd [1]: 7 nM | Kd [2]: 9.4 nM | Kd [3]: 12.3 nM
